Reference: paper doi:10.1101/2023.07.24.550339

Target: Rac1BD (MiniBAR70-208), recombinant (human) (UniProt O15063)
Experiment: SEC-MALS

Substance: Rac1Q61L, recombinant (from UniProt P63000 1-192) (natural protein)
- stoichiometry N (Rac1 per Rac1BD homodimer): 2
